Laboratory results as given in the RNAGym collection of RNA variant scans (doi:10.1073/pnas.2313332121).

B1: TPR t1 (parent)
chain: GACCAAUCUGCCCUCAGAGCUCGAGAACAUCUUCGGAUGCAGAGGAGGCAGGCUUCGGUGGCGCGAUAGCGCCAACGUCCUCAACCUCCAAUGCAUCCCACCACAUGAUGAUGCCUGAAGAGCCUUGGUUUUUUG

Variants of: B1
Experiment: polymerase ribozyme fitness, log enrichment relative to wild type (log ratio); higher = more active; in vitro selection for triplet polymerase activity
Summary of the method: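 A single round of triplicate in vitro selection, including frozen incubation at −7 °C, was applied to PCR-built, transcribed mutant libraries of each subunit of a heterodimeric triplet polymerase ribozyme. Illumina sequencing of input and output libraries retained genotypes with ≥10 input reads and ≥1 read per output. Fitness is the base-2 logarithm of genotype enrichment divided by wild-type enrichment, from inverse-variance-weighted replicate averages.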

Variant	polymerase ribozyme fitness (log ratio)
G71U U131A U133G	-1.3
G69U C104A G113C	-1.8
G69U G71A A75U A103U C124G	-3.98
C70A C86G C102A	-4.88
G69U U87A	0.245
G71U U96A	-1.24
C70U A83C A108G	-2.22
C70A U78C G113A	-2.47
G69U U132A	0.176
C70G C88U	-2.98
C70G C88A	-4.74
C72A A103U C124G U131C	-2.63
G69C A90C A91G A108C U112A	-6.22
G69U C86G U96G C114A	-2.17
G69U C102G	-2.76
C70G G93C	-4.94
C70G G93A	-4.33
G71A G93A G117A G120C	-2.99
G71A U92A A95U	-4.72
C70U C104U	-0.703
C70G C94U	-3
C72A G93C C102G	-6.8
G71U C97U U112A	1.1
C72A G117A	-1.19

Variant	polymerase ribozyme fitness (log ratio)
C70U A95G	-0.166
G69A G77C C94U	-4.05
C70A C115U	-2.84
G69U G71U	-0.811
G69C C86A C94U C114U	-6.26
G69C C86G	-2.97
G69C C80U	-2.38
G71A U106A U133A	-1.42
G71A A118G	-0.577
G69U C115G	-0.0637
G69C U78C U106A	-2.46
G71C C89G U130C	-4.18
G69U U92A U130A	-1.5
G71U G122U	-0.542
G69A C102U	-4.72
C72A G107A	-4.95
C70A U78A C115U	-4.18
G69A G93A G113C	-6.22
C72A G113U G120A U132A	-2.87
G69C A83U C99A C102A	-6.91
G69U G120A	1.25
G69U G120C	1.2
C72A G120U	0.158
C70U A105C	-3.43

Variant	polymerase ribozyme fitness (log ratio)
C70A G128C	-4.69
G69C G113U	-4.51
G69C U92A	-5.61
G71A U106A	-0.841
G71A U106G	-2.73
C70G C115G	-3.68
C70A G110A U133A	-3.64
G71U C99G C115U	-7.86
C70G C79A A111C A119C	-8.17
C72A A83U C123G U126A	0.126
G69C C115A	-0.724
G69C C115U	-1.75
G69U U78A A91U A111C	-0.0328
C70G C104U G127C	-2.51
C72A A118U	0.818
C70G G135U	-3.49
G71U C89A	-2.47
C72A	0.126
G71A G110A	-2.14
C70U G128C	-2.54
C70U U125A	-1.31
C70A C85U G113A	-3.33
C70A A84U	-0.795
C70U A90G	-0.454

Variant	polymerase ribozyme fitness (log ratio)
C70G U126C	-3.27
G71C U96G G120U	-1.37
G71U C79G	-2.2
G69U A111G	1.89
G69U U78G C79A U116A U129G	-5.04
G71A G117U	-2.33
G69A	-2.44
G69U	0.48
G69C	-1.27
C70A A91G	-2.74
G71U C85A	-1.72
C70G A90C C114U A121G	-4.76
C70U C82U A83C C89A G93A	-4.1
C70U C97A G113C A119U G127C	-5.36
G71U C89A U132A	-2.07
C72A G110A	-1.01
G71A G120A	-0.000691
G69A G110A	-3.77
G69A G110C	-6.02
G71U C102G U112A G127U	-5.37
G69U A91C C114A C124U U126C	-2.19
G71U C101U U130G	-0.458
C70U C88A A119G U131A	1.21
G71C A83U G113U	-4.07

Variant	polymerase ribozyme fitness (log ratio)
C70U G117A	-1.99
G69A C101A U132A	-3.65
G69A U106C C114A G120C	-3.12
G71A C123U	0.153
G69U A103G U106A	-4.7
C70U G71A U129G	-1.98
C72A A83U	-0.322
C70U A90G C101A C123A	-1.13
G69C G120A	-0.926
C70U C80U G113C A119G	-3.1
G71C A90U G122A C123U	-3.12
G69A C70U C124A	-4.91
G71A U132A	-0.617
G71A C82U G110U	-2.94
G71U G110U	-1.24
G69U C99G	-6.24
G69U C99A	-3.23
G71U A121U	2.07
G69A C89U C123G	-2.85
G71C C97U	-1.45
G69U G93U U109C	-4.75
A68G G71A C101U	-5.85
C70G G77A G93A A100U A105G U106A	-4.21
G69U G93C A95U A103U C114U	-3.98

Variant	polymerase ribozyme fitness (log ratio)
G69C C123A	-0.685
G69U A83U	-0.34
C72A C114U	-1.24
G69C C97A	-6.49
G71C C124A	-0.102
C70A C72G C102A C104A	-6.86
C70U C85U U126A	-3.11
G69C C76U	-4.07
G71U C73A A83U	-2.73
G71U C72U A118G	-0.476
G69C C88U	-1.17
C70U C115G	-2.23
C70U C115A	0.108
G69A C73A C82A G120A G128A	-3.86
G69C G135A	-1.9
G69C G135U	-2.29
C72A C73A	-0.947
C70G C72G G110U	-6.42
G71C C79G	-1.96
C70G C124U G128C	-3.97
G71A C124A	1.21
G69U U87C C104A	-0.553
C70A U81C C88A G120U	-3.19
G69C G122A	-1.53

Variant	polymerase ribozyme fitness (log ratio)
C72A C88G C124A	1.33
C72A U81G G110U	-6.47
G69A U129G	-3.2
C70U C97U C101U C102A	-4.84
G69A A75G U96C	-3.29
G69C U81C C88U U106C	-2.4
C70U U78G A108G A111C	-2.26
C70A G120A	-0.62
G69U C72U	-0.304
G69U C94U	1.7
C70A A90G	-1.9
G71U C115G	-1.74
G69U C98A	-2.07
C70G U130A	-3.16
G69A C82U U112G	-4.1
G69U C80G	-2.32
C70U U112C	0.987
G69U G113C G122C G127A U132A	-4.29
C70G C123A	-2.21
G69A C124U	-1.25
G69A G120U U130A	-2.09
C70A U87G	-1.73
C70G U96C	-2.6
